According to the supplement of paper PMC10567573:

B1: DVL3 (parent)
chain: FPELGYSYGGGSASSQHSEGSRSS

Variants of: B1
Test: protein stability index of a GFP-peptide fusion (GPS, HEK-293T) (PSI 1-6); higher = more stable
Conditions: c terminus: a fixed tail appended
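Further: lentivirally expressed fusions sorted by FACS into six bins by GFP to DsRed ratio, PSI derived from sequencing read proportions per bin multiplied by bin number.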

Protein stability index of substitutions, site by site:
L4: P 3.24; Q 3.35; G 1.8; H 3.33
E19: Q 2.66; C 2.39; V 2.52; T 3.24; F 3.64; K 2.89; S 3.16; H 2.38; R 2.85; A 2.99; P 3.15; W 1.81; D 3.64; M 3.12
P2: V 4.01; R 4.09; W 3.2; N 4.26; M 3.96; I 2.07; Y 3.1; F 3.37; C 1.99; A 2.87; L 2.86; E 4.66; G 3.12; T 2.38; D 5.09
S12: L 2.81; W 2.22; E 3.56; N 3.17; F 2.65; Y 2.41; V 3; I 2.64; C 3.03; K 2.82; R 2.91; A 2.58; M 2.9; D 3.2; Q 3.12; P 2.92; T 3.29; G 3.14; H 2.9
S18: Q 3.15; H 2.95; D 3.7; N 2.89; A 3.19; M 2.76; I 2.73; T 3.3; W 2.2; P 3.24; K 2.98; Y 2.9; F 2.77; R 2.97; V 3.36
A13: R 3.12; V 3.12; K 2.63; H 2.73; P 2.94; T 3.31; I 2.45; E 3.47; G 3.04; M 2.98; S 2.9; Y 2.49; D 2.77; F 2.31
Y8: G 3.8; C 2.74; M 3.6; F 2.59; R 3.2; D 4.75; Q 4.06; A 3.72; W 2.82; S 4.09; V 3.45; T 3.7; L 3.09; I 2.58; K 2.95; E 4.71
G10: Q 2.84; A 3.06; M 2.15; D 3.67; Y 2.45; E 3.95; H 3.12; K 3.61; W 1.89; V 2.83
S15: T 2.65; G 2.8; L 3.16; C 2.19; E 3.65; D 2.99; A 3.59; H 3.2; P 3.56; M 2.74; N 3.38; Y 2.73; W 1.75; Q 3.18; I 2.9; F 2.71; K 2.64
G11: L 2.57; T 2.52; R 3.5; S 3.03; V 2.81; A 3.29; P 2.9; I 2.22; Q 3.16; W 2.11; E 3.22; K 2.7; Y 2.38
S21: T 3.24; F 2.56; R 2.62; K 3.17; L 2.61; I 2.83; N 2.91; M 2.78; D 2.87; H 2.94; A 2.94; G 2.71; V 3.07; Y 2.88
Q16: W 2.27; H 3.12; T 3.48; R 2.41; F 2.03; C 2.81; K 2.95; G 2.88; P 3.31; E 3.22; A 2.86; S 3.09; Y 2.69; D 3.58; M 3.07; I 3.05
